From patent US20250195629A1, “SITE-SPECIFIC BRAIN THERAPEUTICS” (William Marsh Rice University, priority 2023, published 2025) come the findings set out here.

The series is described as follows: AADC immunostaining, AADC-IKVAV retention and spatial targeting after FUS-BBBO. The series is classed as in vivo, mouse. As to conditions: for local AADC levels (AADC+ pixels) in FUS-targeted region vs FUS alone control group: 250 mg/kg i.v., one FUS site left CPu, 2 days. Here is the method: c-Fos […] injection of recombinant protein AADC-IKVAV (SEQ ID NO: 23) (20 mg/mL, 250 mg/kg) or equivalent volume of PBS buffer (n=5 mice for FUS alone+L-DOPA group). After 48 h, the mice were given a single dose of L-DOPA (0.1 mg/mL, 2 mg/kg, i.p.; Spectrum Chemical) 10 min after injection of carbidopa (1 mg/mL, 25 mg/kg, i.p.; Sigma-Aldrich), both of which were dissolved in sterile saline containing 2.5 and 0.125 mg/mL ascorbic acid. […] After 2 hours, the mice were euthanized by transcardial perfusion, and their brains were extracted and sliced into 50 μm coronal sections following 24-48 hours of fixation.
Immunostaining of AADC was performed as follows: (1) incubate the brain sections in 1× antigen retrieval solution (catalog number: 00-4955-58; Invitrogen) overnight in a 60° C. water bath; (2) block sections in 5% normal goat serum (SouthernBiotech) and 0.3% Triton-X solution in PBS for 1 h at room temperature; (3) incubate with primary rabbit anti-AADC antibody (1:500, 10166-1-AP, Proteintech) for staining AADC-IKVAV (SEQ ID NO: 23) in blocking buffer for 2 h at room temperature; (4) after washing three times in PBS (15 min each, the same as below), incubate with secondary goat anti-rabbit antibody conjugated to Alexa Fluor 647 (1:750, A-21245, ThermoFisher) in blocking buffer for 2 h at room temperature; (5) after washing three times, mount sections onto glass slides using the mounting media (Vector Laboratories) with DAPI and air-dry overnight in dark before imaging.
To analyze AADC-IKVAV (SEQ ID NO: 23) retention, as depicted in FIG. 7 and FIG. 11, stained coronal sections within the striatum were captured using a ×4 objective in DAPI (nuclei, not shown) and far-red (AADC) channels. Among these sections, the one displaying the most intense AADC fluorescence was chosen as the representative for each mouse. Subsequently, the selected sections were further examined at a higher magnification (×40 objective) for quantitative comparison. […] This area was imaged using a ×40 objective. Additionally, corresponding contralateral areas in the right striatum were also imaged.
To quantify the AADC-IKVAV (SEQ ID NO: 23) retention in the FUS targeted region, as shown in FIG. 7 and FIG. 11, the histological images were analyzed using ImageJ (version 1.53t). Specifically, the average pixel intensity of the AADC-IKVAV (SEQ ID NO: 23) channel image captured on the contralateral side of each representative section was calculated to establish the background for that section.
Immediately afterwards, the mice were sacrificed for immunohistochemical analysis of AADC-IKVAV (SEQ ID NO: 23) retention as already mentioned. The section displaying the strongest AADC fluorescence was selected as the representative for each mouse, and its adjacent section was stained separately to identify c-Fos positive cells. […]

Setting [1] is: behavior study, FUS+AADC-IKVAV+L-DOPA, two FUS sites.

B1: AADC-IKVAV: aromatic-L-amino-acid decarboxylase (AADC) protein fused with short peptide IKVAV (SEQ ID NO: 23); CDS SEQ ID NO: 21 (protein)
chain: MRGSHHHHHHGMASMTGGQQMGRDLYDDDDKDPMNASEFRRRGKEMVDYMANYMEGIEGRQVYPDVEPGYLRPLIPAAAPQEPDTFEDIINDVEKIIMPGVTHWHSPYFFAYFPTASSYPAMLADMLCGAIGCIGFSWAASPACTELETVMMDWLGKMLELPKAFLNEKAGEGGGVIQGSASEATLVALLAARTKVIHRLQAASPELTQAAIMEKLVAYSSDQAHSSVERAGLIGGVKLKAIPSDGNFAMRASALQEALERDKAAGLIPFFMVATLGTTTCCSFDNLLEVGPICNKEDIWLHVDAAYAGSAFICPEFRHLLNGVEFADSFNFNPHKWLLVNFDCSAMWVKKRTDLTGAFRLDPTYLKHSHQDSGLITDYRHWQIPLGRRFRSLKMWFVFRMYGVKGLQAYIRKHVQLSHEFESLVRQDPRFEICVEVILGLVCFRLKGSNKVNEALLQRINSAKKIHLVPCHLRDKFVLRFAICSRTVESAHVQRAWEHIKELAADVLRAEREGGSGSSGGSGGSGGSGIKVAV
modifications: misc_feature 1..1602 Synthetic: AADC-IKVAV
B1: where the note is “with subsequent L-DOPA 2 mg/kg i.p.”, the “local AADC levels (AADC+ pixels) in FUS-targeted region vs FUS alone control group” value is recorded as 38.5 (±6.1) fold. The “local AADC levels (AADC+ pixels) in FUS-targeted region vs FUS alone control group” value (without L-DOPA) was 41.8 (±8.9) fold. The “mice with detectable retention within the CPu” value (11 mice receiving AADC-IKVAV) came out at 73%. Also, under setting [1], the “levels of local AADC (AADC+ pixels, left CPu) vs FUS alone group” value was 13.3 (±2.8) fold and the “levels of local AADC (AADC+ pixels, left CPu) vs untreated group” value is listed as 93.3(±19.5) fold. In addition, where the note is “behavior study, two FUS sites, 2 days after delivery”, the “presence of delivered enzyme in the FUS-targeted area by immunostaining” value is given as “present in the FUS-targeted area in all mice”. The “mice with efficient retention within 100 μm of the CPu” value (remaining mice of 11) is 27%.
